Reference: patent US20140323392A1 (UNIVERSITY OF UTAH RESEARCH FOUNDATION, published 2014)
Bridges are numbered along the chain shown (N, C = ends). [ ]: non-standard residue; d: D form.

B1: D10-p5 (peptide)
peptide: Ac-[dK][dK]G[dA][dC][dE][dL][dL]G[dW][dE][dW][dA][dW][dL][dC][dA][dA]-NH2
modifications: disulfide 5-16 (inferred)
B2: PIE2 (peptide)
peptide: Ac-[dK]G[dA][dC][dD][dY][dP][dE][dW][dR][dW][dL][dC][dA][dA]-NH2
modifications: disulfide 4-13 (inferred)
B3: 2K-PIE2 (peptide)
peptide: Ac-[dK][dK]G[dA][dC][dD][dY][dP][dE][dW][dR][dW][dL][dC][dA][dA]-NH2
modifications: disulfide 5-14 (inferred)
B4: PIE7-GK-PEG4 (peptide)
peptide: Ac-G[dA][dC][dD][dY][dP][dE][dW][dQ][dW][dL][dC][dA][dA]G[dK]-NH2
modifications: disulfide 3-12 (inferred); also: PEG4 attached at the C-terminus
B5: PIE8 (peptide)
peptide: Ac-[dK]G[dA][dC][dD][dY][dK][dE][dW][dQ][dW][dL][dC][dA][dA]-NH2
modifications: disulfide 4-13 (inferred)
B6: PIE7-GKK (peptide)
peptide: Ac-G[dA][dC][dD][dY][dP][dE][dW][dQ][dW][dL][dC][dA][dA]G[dK][dK]-NH2
modifications: disulfide 3-12 (inferred)
B7: K-PIE7-GK (peptide)
peptide: Ac-[dK]G[dA][dC][dD][dY][dP][dE][dW][dQ][dW][dL][dC][dA][dA]G[dK]-NH2
modifications: disulfide 4-13 (inferred)
B8: PIE7-GK (peptide)
peptide: Ac-G[dA][dC][dD][dY][dP][dE][dW][dQ][dW][dL][dC][dA][dA]G[dK]-NH2
modifications: disulfide 3-12 (inferred)
B9: PEG5-(PIE13)2 (peptide)
peptide: Ac-[dH][dP][dC][dD][dY][dP][dE][dW][dQ][dW][dL][dC]K[dL]G[dK]-NH2
modifications: disulfide 3-12 (inferred); not fully specified (residue 13); also: dimer crosslinked by PEG5 via internal Lys
B10: C5C(PIE12)2 (peptide)
peptide: Ac-[dH][dP][dC][dD][dY][dP][dE][dW][dQ][dW][dL][dC][dE][dL]G[dK]-NH2
modifications: disulfide 3-12 (inferred); also: dimer, C- to C-terminal link by PEG5 spacer
B11: PIE13 (peptide)
peptide: Ac-[dH][dP][dC][dD][dY][dP][dE][dW][dQ][dW][dL][dC][dK][dL]G[dK]-NH2
modifications: disulfide 3-12 (inferred)
B12: PIE2-AAA (peptide)
peptide: Ac-[dK]G[dA][dC][dD][dY][dP][dE][dW][dR][dW][dL][dC][dA][dA][dA]-NH2
modifications: disulfide 4-13 (inferred)
B13: PIE7 (peptide)
peptide: Ac-[dK]G[dA][dC][dD][dY][dP][dE][dW][dQ][dW][dL][dC][dA][dA]-NH2
modifications: disulfide 4-13 (inferred)

How the values were obtained:
[1] = molecular target: HIV-1 HXB2 envelope glycoprotein gp41 (N-trimer of the prehairpin intermediate) (HIV-1 strain HXB2, UniProt P04578 512-856); assay: cell-based or functional assay
[2] = molecular target: HIV-1 JRFL envelope glycoprotein gp41 (N-trimer of the prehairpin intermediate) (HIV-1 strain JRFL); assay: cell-based or functional assay

Binder	IC50, HXB2 pseudovirion entry [1] [nM]	IC50, JRFL pseudovirion entry [2] [nM]
B1	9.5	> 25000
B2	–	66000
B3	2.6	–
B4	350	13100
B5	1.7	~110000
B6	380	19100
B7	–	14800
B8	390	15800
B9	–	15
B10	–	14
B11	41	1470
B12	1.4	–
B13	620	24000
